We go through ten molecules from patent publication US20240294644A1 (BLUEFIN BIOMEDICINE, published 2024).

The target in assay [1] is T1, human VTCN1 expressed on cells (293-VTCN1 cells; SKBR3, MX-1 and ZR-75-1 cells that express it naturally) (human, UniProt Q7Z7D3 25-282).
T1 construct: The cDNA was bought from Origene
T1 sequence: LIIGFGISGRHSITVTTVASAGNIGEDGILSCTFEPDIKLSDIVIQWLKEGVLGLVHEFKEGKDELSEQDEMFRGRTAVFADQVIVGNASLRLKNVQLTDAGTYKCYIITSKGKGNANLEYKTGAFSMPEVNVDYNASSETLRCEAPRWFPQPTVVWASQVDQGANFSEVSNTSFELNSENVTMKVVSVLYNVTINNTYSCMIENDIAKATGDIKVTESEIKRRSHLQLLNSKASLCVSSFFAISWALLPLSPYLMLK
Briefly: flow cytometry, antibody titration on SKBR3 cells (endogenous VTCN1). Background: In flow cytometry, cells or beads pass a laser one at a time.

The target of assay [2] is T2, recombinant human VTCN1-his protein (human, UniProt Q7Z7D3 25-259, limits assumed).
T2 construct: also called human VTCN1 protein; recombinant VTCN1
T2 sequence: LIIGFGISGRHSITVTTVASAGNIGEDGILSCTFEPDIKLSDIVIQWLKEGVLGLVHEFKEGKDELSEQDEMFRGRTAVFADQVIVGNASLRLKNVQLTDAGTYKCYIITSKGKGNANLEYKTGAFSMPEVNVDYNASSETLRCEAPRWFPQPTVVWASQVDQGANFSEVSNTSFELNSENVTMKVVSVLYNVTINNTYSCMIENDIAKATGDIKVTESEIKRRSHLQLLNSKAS
Briefly: BLI (OCTET), human VTCN1 protein.

The target in the next assay is T3, mouse VTCN1 protein (mouse, UniProt Q7TSP5 25-257, limits assumed).
T3 construct: The construct and its tag are not described
T3 sequence (looked up): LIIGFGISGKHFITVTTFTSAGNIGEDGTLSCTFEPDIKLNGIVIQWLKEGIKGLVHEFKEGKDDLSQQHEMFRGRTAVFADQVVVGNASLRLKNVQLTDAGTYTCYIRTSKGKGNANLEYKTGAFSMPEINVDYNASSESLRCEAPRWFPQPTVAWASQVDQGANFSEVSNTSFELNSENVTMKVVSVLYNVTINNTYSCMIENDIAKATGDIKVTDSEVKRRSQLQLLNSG
As to the kind of experiment: BLI (OCTET), mouse VTCN1 protein.

Assay [3] addresses T1, human VTCN1 expressed on cells …. Briefly: flow cytometry, antibody titration on 293-huVTCN1 cells.
Assay [4] addresses T4, cynomolgus monkey VTCN1 expressed on 293 cells (cynomolgus monkey, UniProt A0A2K5U6P5 25-282).
T4 construct: whole, on cells
T4 sequence: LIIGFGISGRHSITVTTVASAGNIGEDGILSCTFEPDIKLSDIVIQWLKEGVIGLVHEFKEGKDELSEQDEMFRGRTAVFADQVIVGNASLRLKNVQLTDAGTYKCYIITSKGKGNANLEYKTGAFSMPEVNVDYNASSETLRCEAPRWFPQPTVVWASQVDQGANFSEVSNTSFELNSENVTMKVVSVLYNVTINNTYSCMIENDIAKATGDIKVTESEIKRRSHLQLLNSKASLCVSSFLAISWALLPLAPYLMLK
Briefly: flow cytometry, antibody titration on 293-cynoVTCN1 cells.

In assay [5] the target is T5, cynomolgus monkey VTCN1 protein (cynomolgus monkey, UniProt A0A2K5U6P5 25-259).
T5 construct: The construct and its tag are not described; also called cyno VTCN1
T5 sequence: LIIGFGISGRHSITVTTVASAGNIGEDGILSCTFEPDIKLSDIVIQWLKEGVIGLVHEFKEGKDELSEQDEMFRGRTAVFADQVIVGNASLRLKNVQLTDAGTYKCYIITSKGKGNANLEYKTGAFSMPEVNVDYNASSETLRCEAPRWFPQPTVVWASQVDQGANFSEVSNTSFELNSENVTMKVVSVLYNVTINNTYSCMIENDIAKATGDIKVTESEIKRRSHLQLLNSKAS
Briefly: BLI (OCTET), cynomolgus monkey VTCN1 protein.

In assay [6] the target is T6, mouse VTCN1 expressed on 293 cells (mouse, UniProt Q7TSP5 25-257).
T6 construct: whole, on cells
T6 sequence (looked up): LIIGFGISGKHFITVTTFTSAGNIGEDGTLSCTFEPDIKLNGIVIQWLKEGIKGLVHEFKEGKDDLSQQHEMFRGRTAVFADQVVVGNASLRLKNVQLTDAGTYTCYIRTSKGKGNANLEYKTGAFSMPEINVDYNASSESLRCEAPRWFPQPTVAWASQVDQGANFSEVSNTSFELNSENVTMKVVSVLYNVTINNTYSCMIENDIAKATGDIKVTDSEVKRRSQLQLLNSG
Briefly: flow cytometry, antibody titration on 293-muVTCN1 cells.

Assay [7] addresses T2, recombinant human VTCN1-his protein. Briefly: BLI (OCTET), human VTCN1 protein. This is another data set of the same source.
Assay [8] has as its target T4, cynomolgus monkey VTCN1 expressed on …. As to the kind of experiment: flow cytometry of serially diluted antibody on 293-cynoVTCN1 cells, dye-labelled secondary antibody, MFI.
Assay [9] concerns the target T1, human VTCN1 expressed on cells …. Briefly: flow cytometry of serially diluted antibody on SKBR3 cells (natural VTCN1), dye-labelled secondary antibody, MFI.
Assay [10] deals with T6, mouse VTCN1 expressed on 293 cells. As to the kind of experiment: flow cytometry of serially diluted antibody on 293-mouseVTCN1 cells, dye-labelled secondary antibody, MFI.

As a reminder, the EC50 is the concentration giving half of the maximal effect. One may read the Kd as the concentration at which binding is half-saturated. Usually EC50 (read off the curve) stands for the concentration needed to bring the measured effect to its halfway point.

Where two headings read alike, the source gives them in different places.

B1: 12B5_44B1 (antibody, V domains shown)
VH: QVQLVQSGAEVKKPGSSMKVSCKASGDTFSSYAISWVRQAPGQGLEWMAGIIPVFGTAHNAQKFQGRVTITADKSTSTAYMELSSLRSEDTAVYYCTRGGPYFDYWGQGTLVTVSS
VL: EIVMTQSPATLSVSPGERAALSCRASQSVSSNLAWYQQKPGQAPRLLIYGVSTRATGIPDRFNGSGSGTEFTLTISSLQSEDFGAYYCQQYKKWPFIFGPGTKLEIK
notes: Fully human antibody
B1: the EC50 in [1] stood at 35.5 nM; in [3], 9 nM; in assay [4] it was 9 nM; in assay [6], 28.5 nM. Besides, the dissociation constant Kd in assay [2] stood at 2 nM; with mouse VTCN1 protein, 38 nM; in [5] it was 2 nM.

B2: 14D6_60B5 (antibody, V domains shown)
VH: QVQLVHSGAEVKRPGSSVKVSCKASGGTFSSYAISWVRQAPGQGLEWMGGIIPIFGIANYAQKFQGRVTIIADKSTRTAYMELSSLRSEDTAVYYCARGGPYFDYWGQGILVTVSS
VL: EIVMTQSPATLSVSPGERATLSCRASQSVSSNLAWYQQKPGQAPRLLIYGASTRATGIPARFSGSGSGTEFTLTISSLQSEDFAVYYCQQYNKWPFTFGPGTKVDIK
notes: Fully human antibody
For the molecule B2, the concentration giving a half-maximal response (EC50) is 51.4 nM in assay [1], 4.6 nM in assay [3], 5.1 nM in assay [4] and 11.4 nM in assay [6]. Moreover, the values for the Kd (in assay [2]; with mouse VTCN1 protein; in assay [5]) were 5 nM, 56 nM and 5 nM, respectively.

B3: 16H12_60B4 (antibody, V domains shown)
VH: QVQVVQSGAEVKKPGSSVKVSCKASGDTFSNYAISWVRQAPGQGLEWMGGIIPIFGITNYAQKFQGRVTIIADKSTRTAYMELSSLRSEDTAVYYCSRGGPYFDYWGQGILVTVSS
VL: EIVMTQSPATLSVSPGERATLSCRASQSVSSNLAWYQQKPGQAPRLLIYGASTRATGIPARFSGSGSGTEFTLTISSLQSEDFAVYYCQQYKKWPFTFGPGTKVDIK
notes: Fully human antibody
As for B3, the EC50 in assay [1] turned out to be 4 nM; in assay [3], 1.7 nM; in [4] it was 2.1 nM; in [6], 4.8 nM. Also, the Kd in assay [2] was found to be 0.7 nM; in the assay with mouse VTCN1 protein, 27 nM; in [5] it was 1 nM.

B4: 4C7_63A1 (antibody, V domains shown)
VH: QVQLQESGPGLVKPSGTLSLTCAVSGGSISSSNWWSWVRQPPGKGLEAIGEIYHSGNTNYNPSLKSRVTISVDKSKNQFSLKLSSVTAADTAIYYCARDGYSSGWYWGYFDYWGQGTLVTVSS
VL: EIVMTQSPATLSVSPGERATLSCRASQSVNSNLAWYQQKPGQAPWLLIYGASTRATGIPARFSGSGSGTEFTLTISSLQSEDFAVYYCQQYNHWPYTFGQGTKLEIK
notes: Fully human antibody
Consider B4, for which the EC50 was found to be 4.4 nM in [1], 2.1 nM in [3], 1.7 nM in [4] and 3.5 nM in assay [6]. In addition, the figures for the Kd (in assay [2]; with mouse VTCN1 protein; in assay [5]) were 49 nM, 44 nM and 47 nM, respectively.

B5: 13H9_44D2 (antibody, V domains shown)
VH: QVQLQESGPGLVKPSETLSLTCTVSGGSISSYYWSWIRQPPGKGLEWIGYIYYSGSTNNNPSLKSRVTISVDTSKNQFSLKLISVTAADTAVYYCARVYNNYDWGFDYWGQGTLVTVSS
VL: EIVMTQSPATLSVSPGERATLSCRASQSVSSNLAWYQQKPGQAPRLLIYGASTRATGIPARFSGSGSGTEFTLTIRSLQSEDFAVYYCQQYHNWPLTFGGGTKLEIK
notes: Fully human antibody
Consider B5, for which the EC50 in [1] is 1.9 nM; in [3], 1.2 nM; in assay [6], 1.8 nM. Besides, the dissociation constant (Kd) in assay [2] was 128 nM; in the assay with mouse VTCN1 protein, 268 nM.

B6: hu6D9_57A3 (antibody, V domains shown)
VH: QVQLVESGGGVVQPGRSLRLSCAVSGFSLTSYGVQWVRQAPGKGLEWLGVIWSSGSTDYNAAFLSRLTISKDNSKNTVYFQMNSLRAEDTAVYYCARDVTTIVEGFAHWGQGTLVTVSS
VL: DIQMTQSPSSLSASVGDRVTITCKASEKVGTYVSWYQQKPGKAPKLLIYGASNRYTGVPSRFSGSGSGTDFTLTISSLQPEDFATYYCGQTYSYPFTFGQGTKLEIK
notes: Humanized 6D9
As for B6, in [7], the Kd was 28 nM.

B7: hu6D9_66C2 (antibody, V domains shown)
VH: EVQLVESGGGLVQPGGSLRLSCAVSGFSLTSYGVQWVRQAPGKGLEWLGVIWSSGSTDYNAAFLSRLTISKDTSKNTVYFQMNSLRAEDTAVYYCARDVTTIVEGFAHWGQGTLVTVSS
VL: DIQMTQSPSSLSASVGDRVTITCKASEKVGTYVSWYQQKPGKAPKLLIYGASNRYTGVPSRFSGSRSGTDFTLTISSLQPEDFATYYCGQTYSYPFTFGQGTKVEIK
notes: Humanized 6D9
Take B7: the Kd in [7] was found to be 44 nM.

B8: hu6D9_66B1 (antibody, V domains shown)
VH: QVQLVESGGGVVQPGRSLRLSCAVSGFTFSSYGVQWVRQAPGKGLEWLGVIWSSGSTDYNAAFLSRLTISKDNSKNTVYFQMNSLRAEDTAVYYCARDVTTIVEGFAHWGQGTLVTVSS
VL: DIQMTQSPSSLSASVGDRVTITCKASEKVGTYVSWYQQKPGKAPKLLIYGASNRYTGVPSRFSGSGSGTDFTLTISSLQPEDFATYYCGQTYSYPFTFGQGTKLEIK
notes: Humanized 6D9
Turning to B8, the Kd in assay [7] came to 27 nM.

B9: hu6D9_57A5 (antibody, V domains shown)
VH: QVQLVESGGGVVQPGRSLRLSCAVSGFSLTSYGVQWVRQAPGKGLEWLAVIWSSGSTDYNAAFLSRLTISKDNSKNTVYFQMNSLRAEDTAVYYCARDVTTIVEGFAHWGQGTLVTVSS
VL: DIQMTQSPSSLSASVGDRVTITCKASEKVGTYVSWYQQKPGKAPKLLIYGASNRYTGVPSRFSGSGSGTDFTLTISSLQPEDFATYYCGQTYSYPFTFGQGTKLEIK
notes: Humanized 6D9
Turning to B9, the results for the “EC50 (read off the curve)” value in assay [8] and in [9] were about 2 nM and about 6 nM, respectively. Moreover, in [7], the dissociation constant Kd was determined as 36 nM. The binding result in assay [10] is listed as “binds”.

B10: hu6D9_57A4 (antibody, V domains shown)
VH: QVQLVESGPGVVQPGRSLRLSCAVSGFSLTSYGVQWVRQAPGKGLEWLAVIWSSGSTDYNAAFLSRLTISKDNSKSTVYFQMNSLRAEDTAVYYCARDVTTIVEGFAHWGQGTLVTVSS
VL: DIQMTQSPSSLSASVGDRVTITCKASEKVGTYVSWYQQKPGKAPKLLIYGASNRYTGVPSRFSGSGSGTDFTLTISSLQPEDFATYYCGQTYSYPFTFGQGTKLEIK
notes: Humanized 6D9
On to B10, for which the dissociation constant (Kd) in assay [7] came out at 36 nM.
